Data on one sequence can be found in patent US20220213456.

The series has as its system T1, OMNI-47 (Peptoniphilus obesi ph1).
T1 sequence: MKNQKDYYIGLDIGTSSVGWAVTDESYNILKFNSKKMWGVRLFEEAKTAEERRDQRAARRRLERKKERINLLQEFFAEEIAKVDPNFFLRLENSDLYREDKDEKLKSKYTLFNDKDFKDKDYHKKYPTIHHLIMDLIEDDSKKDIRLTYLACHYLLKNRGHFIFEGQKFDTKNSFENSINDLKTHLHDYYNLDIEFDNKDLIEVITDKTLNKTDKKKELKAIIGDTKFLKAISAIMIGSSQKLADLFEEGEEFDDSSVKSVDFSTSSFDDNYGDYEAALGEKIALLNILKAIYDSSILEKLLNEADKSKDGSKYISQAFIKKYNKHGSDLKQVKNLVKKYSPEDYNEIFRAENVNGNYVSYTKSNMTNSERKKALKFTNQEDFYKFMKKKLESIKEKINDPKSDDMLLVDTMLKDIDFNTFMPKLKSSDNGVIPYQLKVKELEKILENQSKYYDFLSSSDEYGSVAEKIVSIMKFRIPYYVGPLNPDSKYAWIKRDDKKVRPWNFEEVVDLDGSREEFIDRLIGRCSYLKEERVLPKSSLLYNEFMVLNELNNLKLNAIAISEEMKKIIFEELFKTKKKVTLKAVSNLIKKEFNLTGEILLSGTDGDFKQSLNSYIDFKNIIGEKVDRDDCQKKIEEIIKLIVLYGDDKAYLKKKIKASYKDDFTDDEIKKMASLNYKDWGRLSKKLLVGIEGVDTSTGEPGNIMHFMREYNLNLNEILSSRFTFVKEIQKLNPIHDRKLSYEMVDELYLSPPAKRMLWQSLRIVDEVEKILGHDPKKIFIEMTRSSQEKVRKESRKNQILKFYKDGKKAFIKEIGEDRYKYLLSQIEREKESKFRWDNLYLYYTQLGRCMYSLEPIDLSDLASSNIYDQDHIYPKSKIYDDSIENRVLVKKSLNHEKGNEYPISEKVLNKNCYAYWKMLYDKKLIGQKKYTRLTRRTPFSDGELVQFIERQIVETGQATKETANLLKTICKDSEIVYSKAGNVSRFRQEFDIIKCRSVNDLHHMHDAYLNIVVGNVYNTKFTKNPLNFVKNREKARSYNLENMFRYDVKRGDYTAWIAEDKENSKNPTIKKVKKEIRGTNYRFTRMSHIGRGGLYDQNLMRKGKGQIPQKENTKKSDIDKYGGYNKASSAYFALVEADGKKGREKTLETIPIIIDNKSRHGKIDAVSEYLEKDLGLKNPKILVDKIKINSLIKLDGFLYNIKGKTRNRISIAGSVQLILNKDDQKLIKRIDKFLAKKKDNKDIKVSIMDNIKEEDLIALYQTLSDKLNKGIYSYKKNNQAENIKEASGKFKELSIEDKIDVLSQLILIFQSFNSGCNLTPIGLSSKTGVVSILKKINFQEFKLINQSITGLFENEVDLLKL
Put plainly: cleavage_in_vitro. As to conditions: TXTL; PAM NVYR (specific NRTA); V1, V2 tested.

In turn, “GGAAGAGCAGAGCCUUGGUCUCGUUUGAGAGUUAUGGAAACAUGAUGAGUUCAAAUAAAAAUUUAUUCAAAUCGCCCAUUAUGGGCCGCAGAUGUUCUGCAUUAUAUGCUUGCAAGUUGCAAGCUUUUUUU / GGAAGAGCAGAGCCTTGGTCTCNNNNNNNN / NNNNNNNNGAGACCAAGGCTCTGCTCTTCC [OMNI-47 T2 sgRNA V1 ; pbPOS T2 protospacer 8N PAM library]” returned an activity (1-depletion score) of 0.98.
